According to the supplement of paper PMC9112550, “Optimization of the antimicrobial peptide Bac7 by deep mutational scanning” (BMC Biology, 2022):

Tested on: Escherichia coli TOP10
Experiment: shrunken log2 fold change of peptide-encoding DNA abundance (4.5 h post-induction vs induction); higher = less antimicrobial activity (less host growth inhibition)
Settings: time post-induction: 4.5 h; library: site-saturation at positions 5, 18, 19, 20
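Also: peptides expressed intracellularly from a pBAD plasmid library in pooled LB shake-flask culture, induced with 0.3% L-arabinose, DNA abundance read by NGS, three biological replicates, DESeq2 with apeglm shrinkage.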

Sequence | shrunken log2 fold change
RRIRRRPPRLPRPRPRPDACPRP | 0.00716
RRIRHRPPRLPRPRPRPRVYPRP | -0.0307
RRIRHRPPRLPRPRPRPKLNPRP | -0.248
RRIRFRPPRLPRPRPRPHQRPRP | -0.183
RRIRQRPPRLPRPRPRPSWSPRP | -0.185
RRIRSRPPRLPRPRPRPHYSPRP | -0.596
RRIRWRPPRLPRPRPRPNLSPRP | -0.197
RRIRTRPPRLPRPRPRPFEAPRP | 0.0368
RRIRWRPPRLPRPRPRPNEEPRP | -0.0212
RRIRARPPRLPRPRPRPNGVPRP | -0.00122
RRIRTRPPRLPRPRPRPMDVPRP | -0.303
RRIRNRPPRLPRPRPRPLVSPRP | -0.185
RRIRRRPPRLPRPRPRPMSGPRP | 0.0609
RRIRKRPPRLPRPRPRPSGYPRP | -0.0136
RRIRARPPRLPRPRPRPASVPRP | 0.261
RRIRRRPPRLPRPRPRPLENPRP | 0.194
RRIRLRPPRLPRPRPRPYTQPRP | -0.845
RRIRCRPPRLPRPRPRPGCDPRP | 0.258
RRIRDRPPRLPRPRPRPFHFPRP | -0.208
RRIRLRPPRLPRPRPRPSVCPRP | 0.0879
RRIRIRPPRLPRPRPRPFDIPRP | -1.02
RRIRLRPPRLPRPRPRPKLTPRP | 0.106

Sequence | shrunken log2 fold change
RRIRMRPPRLPRPRPRPNKGPRP | 0.0758
RRIRMRPPRLPRPRPRPKVGPRP | 1.27
RRIRPRPPRLPRPRPRPHWYPRP | -0.165
RRIRWRPPRLPRPRPRPHNLPRP | -0.414
RRIRARPPRLPRPRPRPEHCPRP | 0.0263
RRIRDRPPRLPRPRPRPNCIPRP | -0.00269
RRIRWRPPRLPRPRPRPTTDPRP | 0.449
RRIRDRPPRLPRPRPRPINRPRP | -0.104
RRIRFRPPRLPRPRPRPSNGPRP | -0.238
RRIRQRPPRLPRPRPRPSNMPRP | -0.459
RRIRHRPPRLPRPRPRPETQPRP | -0.137
RRIRIRPPRLPRPRPRPQLNPRP | -0.499
RRIRQRPPRLPRPRPRPVKVPRP | -0.00987
RRIRGRPPRLPRPRPRPWDYPRP | 0.183
RRIRNRPPRLPRPRPRPYSSPRP | -0.027
RRIRVRPPRLPRPRPRPGVSPRP | -0.141
RRIRARPPRLPRPRPRPMVNPRP | 0.309
RRIRFRPPRLPRPRPRPMQNPRP | 0.027
RRIRARPPRLPRPRPRPRGRPRP | 0.703
RRIRIRPPRLPRPRPRPSFLPRP | -1.11
RRIRMRPPRLPRPRPRPLYWPRP | 0.0465
RRIRRRPPRLPRPRPRPPCEPRP | 0.195

Sequence | shrunken log2 fold change
RRIRWRPPRLPRPRPRPHGVPRP | 0.0746
RRIRARPPRLPRPRPRPHVLPRP | -0.0367
RRIRLRPPRLPRPRPRPCEMPRP | -0.0934
RRIRVRPPRLPRPRPRPPKMPRP | -0.0776
RRIRFRPPRLPRPRPRPQDNPRP | -0.186
RRIRARPPRLPRPRPRPYDTPRP | -0.0699
RRIRQRPPRLPRPRPRPNNQPRP | -0.477
RRIRVRPPRLPRPRPRPSWDPRP | 0.192
RRIRPRPPRLPRPRPRPKYRPRP | 2.73
RRIRKRPPRLPRPRPRPKVQPRP | 0.092
RRIRKRPPRLPRPRPRPRRGPRP | 0.799
RRIRSRPPRLPRPRPRPADRPRP | 0.308
RRIRDRPPRLPRPRPRPHYGPRP | -0.192
RRIRERPPRLPRPRPRPETPPRP | 0.784
RRIRMRPPRLPRPRPRPLREPRP | 3.88
RRIRDRPPRLPRPRPRPVDEPRP | -0.023
RRIRIRPPRLPRPRPRPPNEPRP | -0.365
RRIRDRPPRLPRPRPRPLPAPRP | 0.574
RRIRYRPPRLPRPRPRPPAGPRP | 0.322
RRIRLRPPRLPRPRPRPKKWPRP | 0.11
RRIRARPPRLPRPRPRPEDVPRP | 0.931
RRIRERPPRLPRPRPRPGTLPRP | -0.251

Sequence | shrunken log2 fold change
RRIRMRPPRLPRPRPRPNSIPRP | -0.283
RRIRKRPPRLPRPRPRPKFAPRP | 0.764
RRIRCRPPRLPRPRPRPECVPRP | 0.588
RRIRDRPPRLPRPRPRPICKPRP | 0.00282
RRIRERPPRLPRPRPRPPDKPRP | 0.0845
RRIRGRPPRLPRPRPRPFKEPRP | -0.0428
RRIRCRPPRLPRPRPRPNGFPRP | -0.0899
RRIRDRPPRLPRPRPRPPCAPRP | 0.371
RRIRERPPRLPRPRPRPMWNPRP | -0.0278
RRIRQRPPRLPRPRPRPWPVPRP | 0.103
RRIRFRPPRLPRPRPRPIMNPRP | -0.515
RRIRDRPPRLPRPRPRPNGLPRP | -0.0178
RRIRLRPPRLPRPRPRPCTHPRP | -0.0381
RRIRWRPPRLPRPRPRPLQPPRP | 0.54
RRIRHRPPRLPRPRPRPEDYPRP | 0.0112
RRIRLRPPRLPRPRPRPVMAPRP | 0.0839
RRIRARPPRLPRPRPRPPWTPRP | 0.385
RRIRLRPPRLPRPRPRPSGSPRP | 0.182
RRIRQRPPRLPRPRPRPHLDPRP | -0.0359
RRIRIRPPRLPRPRPRPGLNPRP | 1
RRIRYRPPRLPRPRPRPKLFPRP | -0.0593
RRIRNRPPRLPRPRPRPTQKPRP | 0.241

Sequence | shrunken log2 fold change
RRIRERPPRLPRPRPRPIWSPRP | 0.0428
RRIRHRPPRLPRPRPRPQWWPRP | -0.0314
RRIRARPPRLPRPRPRPNKQPRP | 0.165
RRIRKRPPRLPRPRPRPMDPPRP | 0.115
RRIRWRPPRLPRPRPRPVKHPRP | 0.0838
RRIRERPPRLPRPRPRPSPGPRP | -0.00119
RRIRTRPPRLPRPRPRPYDQPRP | -0.241
RRIRLRPPRLPRPRPRPHLTPRP | -0.241
RRIRGRPPRLPRPRPRPDKRPRP | 0.767
RRIRIRPPRLPRPRPRPNWGPRP | -0.205
RRIRPRPPRLPRPRPRPQPYPRP | -0.177
RRIRSRPPRLPRPRPRPMFMPRP | -0.223
RRIRARPPRLPRPRPRPPYNPRP | -0.399
RRIRRRPPRLPRPRPRPYLGPRP | -0.276
RRIRERPPRLPRPRPRPFYMPRP | -0.167
RRIRSRPPRLPRPRPRPMGTPRP | 0.194
RRIRYRPPRLPRPRPRPVVKPRP | -0.0513
RRIRFRPPRLPRPRPRPVQQPRP | 0.355
RRIRIRPPRLPRPRPRPEDDPRP | -0.16
RRIRERPPRLPRPRPRPNKRPRP | -0.164
RRIRRRPPRLPRPRPRPWWMPRP | 0.386
